Reference: PMC13035853, “Mechanism of beta-arrestin 1 mediated Src activation via Src SH3 domain revealed by cryo-electron microscopy” (Nature Communications, 2026)

Target: SH3 domain of Src (residues 83-141), wild type, with C-terminal FLAG-tag (chicken, UniProt P00523 83-141)
Assay: bimane fluorescence; as a10, for the pair of SH3 (250 nM) and βarr1 V70C-mBr (20 nM), both purified; read-out is the loss of the V2R-induced rise of bimane fluorescence
Conditions: both partners purified

B1: βarr1-MC-393 V70C labeled with monobromobimane (natural protein, rat, UniProt P29066 1-393, looked up)
chain: MGDKGTRVFKKASPNGKLTVYLGKRDFVDHIDLVDPVDGVVLVDPEYLKERRVYVTLTAAFRYGREDLDCLGLTFRKDLFVANVQSFPPAPEDKKPLTRLQERLIKKLGEHAYPFTFEIPPNLPSSVTLQPGPEDTGKAIGVDYEVKAFVAENLEEKIHKRNSVRLVIRKVQYAPERPGPQPTAETTRQFLMSDKPLHLEASLDKEIYYHGEPISVNVHVTNNTNKTVKKIKISVRQYADIVLFNTAQYKVPVAMEEADDTVAPSSTFSKVYTLTPFLANNREKRGLALDGKLKHEDTNLASSTLLREGANREILGIIVSYKVKVKLVVSRGGLLGDLASSDVAVELPFTLMHPKPKEEPPHREVPESETPVDTNLIELDTNDDDIVFEDFAR
modifications: bimane (mBr) on C70 of the finger loop
notes: beta-arrestin 1, rat, minimal cysteine and truncated variant (MC-393) with V70C; also called βarr1 V70C-mBr; βarr1 finger loop bimane; source: E. coli BL21 derivative, purified; labeled with monobromobimane, free label removed by SEC
B1: binds.
